Assay results from patent US20260216242A1, “ALPP-SPECIFIC VARIANT ANTIGEN BINDING MOLECULES” (ALMAC DISCOVERY LIMITED, priority 2022, published 2026).
Positions count from the first letter of the chain named.

T1: ALPI expressed on the surface of CHO cells (CHO-ALPI) (Homo sapiens, UniProt P09923)
T1 construct: expressed in transfected cells
T1 sequence (P09923 20-503 limits assumed): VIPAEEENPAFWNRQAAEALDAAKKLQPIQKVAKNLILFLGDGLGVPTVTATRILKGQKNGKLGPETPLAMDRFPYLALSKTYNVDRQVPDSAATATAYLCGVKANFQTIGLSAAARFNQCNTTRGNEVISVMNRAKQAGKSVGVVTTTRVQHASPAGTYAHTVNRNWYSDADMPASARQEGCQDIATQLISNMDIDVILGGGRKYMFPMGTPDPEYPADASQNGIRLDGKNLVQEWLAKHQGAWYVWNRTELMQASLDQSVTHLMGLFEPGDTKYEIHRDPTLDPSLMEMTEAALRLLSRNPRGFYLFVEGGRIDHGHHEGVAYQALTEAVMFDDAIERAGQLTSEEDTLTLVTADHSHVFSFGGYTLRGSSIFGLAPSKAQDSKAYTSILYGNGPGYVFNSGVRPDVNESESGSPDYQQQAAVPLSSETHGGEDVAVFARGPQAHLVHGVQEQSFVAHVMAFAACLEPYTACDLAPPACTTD

T2: ALPI His homodimer (Homo sapiens, UniProt P09923)
T2 sequence (P09923 with tags, fused parts or gaps): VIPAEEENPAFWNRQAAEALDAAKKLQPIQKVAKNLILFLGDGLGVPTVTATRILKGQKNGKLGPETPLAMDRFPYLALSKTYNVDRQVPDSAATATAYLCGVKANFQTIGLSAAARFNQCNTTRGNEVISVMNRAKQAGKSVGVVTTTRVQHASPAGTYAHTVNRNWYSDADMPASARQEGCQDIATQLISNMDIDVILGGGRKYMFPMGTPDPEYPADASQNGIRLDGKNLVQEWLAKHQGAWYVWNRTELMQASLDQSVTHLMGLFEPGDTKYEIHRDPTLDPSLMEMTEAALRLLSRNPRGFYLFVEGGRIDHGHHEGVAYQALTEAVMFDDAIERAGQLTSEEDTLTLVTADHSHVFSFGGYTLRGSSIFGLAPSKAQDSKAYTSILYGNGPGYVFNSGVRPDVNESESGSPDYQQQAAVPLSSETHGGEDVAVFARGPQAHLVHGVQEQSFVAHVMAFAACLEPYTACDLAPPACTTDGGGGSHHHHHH

B1: D04: ALPP/ALPPL2 targeting VHH domain, SEQ ID NO: 26 (protein)
VHH: QVQLVESGGGLVQPGGSLRLSCAASESTFSINVMGWYRQAPGKQRELVATITSGDITNYADSVKGRFTISRDNAENTVYLRTNSLKPEDTAVYYCNARGEYHSGNEYDYWGQGTQVTVSS
B2: F08: ALPP/ALPPL2 targeting VHH domain, SEQ ID NO: 35 (protein)
VHH: QVQLVESGGGSVQAGGSLRLSCAASGPSLSNYAMGWFRQAPGKEREFVAGISWGGGRTSYTDSVKGRFTISRDNAKNTVYLQMNNLKPEDTGVYYCAGRYGRGRNVEYEYDYWGQGTQVTVSS
B3: C07: ALPP/ALPPL2 targeting VHH domain, SEQ ID NO: 25 (protein)
VHH: QVQLVESGGGLVQAGESLRLACAASGTIFSGNAVGWYRQAPEKQREWVSSITDYGDTDYAEAVKGRFTISRDNAKNTVYLQMNSLKPEDTAVYYCYVYQRGESEEYWGQGTQVTVSS
B4: E06: ALPP/ALPPL2 targeting VHH domain, SEQ ID NO: 30 (protein)
VHH: QVHLVESGGGLVQAGGSLRLSCAASRRSFSEYAMGWFRQAPGKEREFVAAIGWSGVIEYADSVKGRFTISRDNAKDTVYLQMNSLKPEDTAVYYCAAGLGIRVVSQTPAYWGQGTQVTVSS
B5: A05: ALPP/ALPPL2 targeting VHH domain, SEQ ID NO: 16; tested C-terminally His-tagged (protein)
VHH: QVQLVESGGGLVQAGASLTLSCAASGFTFNTRSIVWFRQAPGKEREAVSCISKVAGSTYYGDSVQGRFSSSTDNAKNTVSLQMNSLKPEDTAVYTCAASFAPNCYGWSVAANMEYWGEGTMVTVSS
modifications: C-terminal His tag
notes: tested C-terminally His-tagged
B6: E10: ALPP/ALPPL2 targeting VHH domain, SEQ ID NO: 31 (protein)
VHH: QVQLVESGGGLVQAGGSLRLSCAVSGRALSDYNIGWFRQAPGKEREFVARKTWDGSSTRYDDSVKGRFTVSIEDAKNTAYLQMSSLKTEDTAVYYCAAGRYSRARGWEYDYWGQGTQVTVSS
B7: F05: ALPP/ALPPL2 targeting VHH domain, SEQ ID NO: 34 (protein)
VHH: B6 VHH with V24A, L29F, S30G, K51R, E73D, D74N, S84N, A104V
B8: A06: ALPP/ALPPL2 targeting VHH domain, SEQ ID NO: 17; tested C-terminally His-tagged (protein)
VHH: QVHLVESGGGLVQAGGSLRLSCAASGRTFLSMGWFRQAPGKEREFVAAISWTGGSTGYADSVKGRFTISRESDKETMYLQMNSLKPEDTAVYYCAARGDVYYGGDDATRYKYWGQGTQVTVSS
modifications: C-terminal His tag
notes: as for B5
B9: D10: ALPP targeting VHH domain, SEQ ID NO: 28 (protein)
VHH: QVQLVESGGGLVQPGGSLRLSCAASGSIFSVNTMGWYRQAPGKQRDLVAVATSGGTIHYADSVKGRFTISRDNAKNTVYLQMNSLKPEDTAVYYCNLVVPYGMIAGDHDYWGQGTKVTVSS
B10: B01: ALPP/ALPPL2 targeting VHH domain, SEQ ID NO: 20 (protein)
VHH: QVQLVESGGGLVQAGGSLRLSCEVTRSPMPIDTMAWYRQAPGRQRELVAIISRSGSTNYADSVKGRFTISRNDTKSTMYKSTMYLKMNTLELEDTGVYYCNAVGLWNGAEYWGQGTQVTVSS

molecular target: T1, ALPI expressed on the surface of CHO cells (CHO-ALPI); assay: Cell-surface binding by flow cytometry, CHO-ALPI; conditions: VHH His at 350 nM
Procedure: C-terminal His tagged VHH proteins were assessed for ALPP, ALPPL2, ALPI and ALPL cell-surface binding by flow cytometry. Binders encompassing different epitope bins were screened on CHO cells stably expressing ALPP, ALPPL2, ALPI or ALPL. High levels of cell-surface proteins expression were confirmed for each of the cell-lines by flow cytometry.
Cell surface binding of test agents to hALPP isoforms was characterized in four CHO-ALPP isoform stably transfected cell lines (CHO-ALPP, CHO-ALPPL2, CHO-ALPI and CHO-ALPL) and the resulting KDapp values determined. Adherent cells were detached from tissue culture flasks by incubating with 0.1% EDTA/PBS solution at 37° C. for ~10 minutes or until cells detached easily. Cells were re-suspended in ice-cold PBS/2% FCS in 15 ml tubes and centrifuged at 1700 rpm for 5 mins at 4° C. Supernatant was removed and the cell pellet re-suspended in PBS/2% FCS. A cell count was performed using a Chemometec Nucleocounter NC-202 and 2.5×10^5 cells were aliquoted per test sample into a 96 well plate. Cells were incubated with 100 μl of test agents at a range of concentrations, plus controls for 1 hr on ice. The sample plate was centrifuged at 1700 rpm for 5 mins at 4° C. The supernatant was removed, and a wash performed by re-suspending the cell pellets in 0.25 mL of ice-cold PBS/2% FCS using a multichannel pipette. Samples were again centrifuged at 1700 rpm for 5 min at 4° C. Supernatant was removed and two further washes performed as described. After the final wash and centrifugation step, excess liquid was removed by blotting the plate on tissue paper. Binding of VHH (His6 tagged) agents was determined by adding 100 μl of anti-x6His tag Ab (Abcam) per cell pellet sample as appropriate and incubating on ice for 30 mins. Wash steps were performed as described previously. Fitc-anti-mouse antibody (ThermoFisher) was used to detect binding of the VHH (His6 tagged) agents by incubating with the appropriate samples for 30 min on ice in the dark. Wash steps were performed as described previously. All cell pellets were finally re-suspended in […] of ice-cold PBS/2% FCS and left on ice in the dark prior to analysis on a Merck-Millipore Guava EasyCyte HT or Thermo Fisher Attune N×T flow cytometer.
VHH-hFc proteins were assessed for human ALPP, ALPPL2, ALPI and ALPL cell-surface binding by flow cytometry. Binders were screened on CHO cells stably expressing human ALPP, ALPPL2, ALPI or ALPL.
Cell surface binding of test agents to hALPP isoforms was characterized in four CHO-ALPP isoform transfectant cell lines (CHO-ALPP, CHO-ALPPL2, CHO-ALPI and CHO-ALPL) and the resulting KDapp values determined. Adherent cells were detached from tissue culture flasks by incubating with 0.1% EDTA/PBS solution at 37° C. for ~10 minutes or until cells detached easily. Cells were re-suspended in ice-cold PBS/2% FCS in 15 ml tubes and centrifuged at 1700 rpm for 5 mins at 4° C. Supernatant was removed and the cell pellet re-suspended in PBS/2% FCS. A cell count was performed using a Chemometec Nucleocounter NC-202 and 2.5×10^5 cells were aliquoted per test sample into a 96 well plate. Cells were incubated with 100 μl of test agents at a range of concentrations, plus controls for 1 hr on ice. The sample plate was centrifuged at 1700 rpm for 5 mins at 4° C. The supernatant was removed, and a wash performed by re-suspending the cell pellets in 0.25 mL of ice-cold PBS/2% FCS using a multichannel pipette. Samples were again centrifuged at 1700 rpm for 5 min at 4° C. Supernatant was removed and two further washes performed as described. After the final wash and centrifugation step, excess liquid was removed by blotting the plate on tissue paper. Binding of VHH-hFc agents was determined by adding 100 μl of Fitc-anti-human Ab (ThermoFisher) and incubating for 30 mins on ice in the dark. Wash steps were performed as described previously. […]

Question: For B1, which “ALPI MFI as % of the ALPP MFI” value is on record?
Answer: 9.5%

Question: Which “ALPI MFI as % of the ALPP MFI” value does the source give for B2 here?
Answer: 1.3%

same assay, conditions: VHH His proteins, flow cytometry, up to 350 nM

Question: B3 was tested. Which “KDapp CHO-ALPI” value did it give?
Answer: No binding

Question: B4 was tested. Which “KDapp CHO-ALPI” value did it give?
Answer: No binding

Question: How did the “KDapp CHO-ALPI” value turn out when B5 was run?
Answer: No binding

Question: For B6, which “KDapp CHO-ALPI” value is on record?
Answer: No binding

Question: With B7 as the molecule, how does the “KDapp CHO-ALPI” value read?
Answer: No binding

Question: B8 was tested. Which “KDapp CHO-ALPI” value did it give?
Answer: No binding

Question: With B1 as the molecule, how does the “KDapp CHO-ALPI” value read?
Answer: Minimal

Question: With B9 as the molecule, how does the “KDapp CHO-ALPI” value read?
Answer: No binding

Question: B10 was tested. Which “KDapp CHO-ALPI” value did it give?
Answer: No binding

Question: For B2, which “KDapp CHO-ALPI” value is on record?
Answer: Minimal

same assay, conditions: VHH proteins, flow cytometry

Question: With B1 as the molecule, how does the “binding to ALPI on CHO cells (in words)” value read?
Answer: weak binding

Question: For B2, which “binding to ALPI on CHO cells (in words)” value is on record?
Answer: minimal binding

molecular target: T2, ALPI His homodimer; assay: ELISA binding to ALPI; conditions: 500 ng purified VHH
Procedure: ELISA was used to test the binding and specificity of the VHHs. ALPP CysHis (SEQ ID NO: 263), ALPI His homodimer (SEQ ID NO: 264) or BSA (Thermo Fisher) were coated onto plates and 500 ng of each purified VHH added. Anti-Llama—HRP antibody was used for detection.

Question: Which “ELISA hALPI” value does the source give for B3 here?
Answer: No Binding

Question: For B4, which “ELISA hALPI” value is on record?
Answer: No Binding

Question: With B5 as the molecule, how does the “ELISA hALPI” value read?
Answer: No Binding

Question: Which “ELISA hALPI” value does the source give for B6 here?
Answer: No Binding

Question: Which “ELISA hALPI” value does the source give for B7 here?
Answer: No Binding

Question: B8 was tested. Which “ELISA hALPI” value did it give?
Answer: No Binding

Question: For B1, which “ELISA hALPI” value is on record?
Answer: No Binding

Question: Which “ELISA hALPI” value does the source give for B9 here?
Answer: No Binding

Question: Which “ELISA hALPI” value does the source give for B10 here?
Answer: No Binding

Question: How did the “ELISA hALPI” value turn out when B2 was run?
Answer: No Binding
